Target: aimp2_crigr AIMP2 (UniProt Q9WVM7)
Sequence (Q9WVM7 whole entry): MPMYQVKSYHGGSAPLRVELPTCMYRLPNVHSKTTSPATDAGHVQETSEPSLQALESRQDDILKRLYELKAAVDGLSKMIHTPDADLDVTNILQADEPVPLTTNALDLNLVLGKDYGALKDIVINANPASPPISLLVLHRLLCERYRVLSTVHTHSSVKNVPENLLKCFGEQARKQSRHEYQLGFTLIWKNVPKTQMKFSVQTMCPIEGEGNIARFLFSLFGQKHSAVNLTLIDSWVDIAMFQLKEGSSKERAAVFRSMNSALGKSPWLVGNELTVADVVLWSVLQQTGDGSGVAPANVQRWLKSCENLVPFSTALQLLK

Lysine--tRNA ligase (Cricetulus griseus (Chinese hamster)), P37879 F263V, sequence (P37879 whole entry F263V): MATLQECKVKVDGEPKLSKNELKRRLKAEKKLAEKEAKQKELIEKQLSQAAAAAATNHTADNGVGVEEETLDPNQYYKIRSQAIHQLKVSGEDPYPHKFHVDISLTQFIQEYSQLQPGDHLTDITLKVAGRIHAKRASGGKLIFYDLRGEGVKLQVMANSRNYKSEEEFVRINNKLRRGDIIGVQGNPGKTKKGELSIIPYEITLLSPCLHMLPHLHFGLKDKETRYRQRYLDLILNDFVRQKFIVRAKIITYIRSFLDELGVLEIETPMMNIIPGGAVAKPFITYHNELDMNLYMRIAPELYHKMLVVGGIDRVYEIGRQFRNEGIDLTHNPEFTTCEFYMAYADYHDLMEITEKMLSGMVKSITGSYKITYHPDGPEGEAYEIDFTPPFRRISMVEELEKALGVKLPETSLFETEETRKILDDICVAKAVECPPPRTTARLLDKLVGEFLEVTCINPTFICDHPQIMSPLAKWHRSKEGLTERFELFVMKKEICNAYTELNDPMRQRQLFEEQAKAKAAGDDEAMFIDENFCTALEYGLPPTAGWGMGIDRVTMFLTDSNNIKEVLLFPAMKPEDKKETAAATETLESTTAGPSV
Lysine--tRNA ligase (Cricetulus griseus (Chinese hamster)), P37879 P200L, sequence (P37879 whole entry P200L): as the sequence (P37879 whole entry F263V) above, with P200L, V263F counted along it

effect of a mutation on the interaction | Substance
decreasing interaction strength | Lysine--tRNA ligase (Cricetulus griseus (Chinese hamster)), P37879 F263V
decreasing interaction strength | Lysine--tRNA ligase (Cricetulus griseus (Chinese hamster)), P37879 P200L

Reference: IntAct's records for PubMed 31116475
